Laboratory results from patent publication US8246957.

Legend:
[1] = biological target: gp120 of HIV-1 primary isolate BR004 (clade C) (HIV-1 strain BR004); assay: cell-based or functional assay
[2] = biological target: gp120 of HIV-1 primary isolate SF-162 (clade B) (HIV-1 strain SF-162); assay: cell-based or functional assay

IgG clone b12 (antibody)
IC50, HIV-1 neutralization (p24, PBMC hosts) (µg Ab fragment/ml) [1]: 9 | IC90, HIV-1 neutralization (p24, PBMC hosts) (µg Ab fragment/ml) [1]: 333 | IC50, HIV-1 neutralization (p24, PBMC hosts) (µg Ab fragment/ml) [2]: 1.1 | IC90, HIV-1 neutralization (p24, PBMC hosts) (µg Ab fragment/ml) [2]: 14.1
